# Test: yeast display, Sf9 membrane polyspecificity reagent, FACS + sequencing; frameworks hold sequencing errors
# Procedure, shortened: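 A nanobody's polyreactivity label depends on the gate it was sorted from. Yeast display cells were stained with 10% biotinylated, detergent-solubilized Sf9 membrane reagent for 1 hour at 4 °C, enriched on streptavidin microbeads and sorted by FACS. The low and high (top ~1%) gates were set on anti-HA fluorescence for expression and streptavidin fluorescence for reagent binding.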
row,Sequence,polyreactivity (PSR sort gate)
1,QVQLVESGGGLVQAGGSLRLSCAASGFTFSSYAMGWYRQEPGKERELVAAISTSGASTYYADSVKGRFTISRDNAKNTVYLQMNSLKPEDTAVYYCNVPQWHRWYRYPGEDYDYWGQGTQVTVSS,high polyreactivity
2,QVQLVESGGGLVQAGGSLRLSCAASGFTFSTNAMGWYRQAPGKERELVAAITWRGGSTYYADSVKGRFTISRDNAKNTVYLQMNSLKPEDTAVYYCARRSRGSHVSYYKKFDYWGQGTQVTVSS,low polyreactivity
3,QVQLVESGGGLVQAGGSLRLSCAASGFTFSTYTMGWYRQAPGKERELVARITWSGTRTYYADSVKGRFTISRDNAKNTVYLQMNSLKPEDTAVYYCNAGPYARYYWGQGTQVTVSS,high polyreactivity
4,QVQLVESGGGLVQAGGSLRLSCAASGFTFSVNAMGWYRQAPGKERELVAAITRSGGRTYYADSVKGRFTISRDNAKNTVYLQMNSLKPEDTAVYYCATPRSRTDGYDYWGQGTQVTVSS,high polyreactivity
5,QVQLVESGGGLVQAGGSLRLSCAASGFTFSWYALGWYRQAPGKERELVAAINWSGTSTYYADSVKGRFTISRDNAKNTVYLQMNSLKPEDTAVYYCNVVVYRWSPVSKLDYWGQGTQVTVSS,high polyreactivity
6,QVQLVESGGGLVQAGGSLRLSCAASGFTFSWYAMGRYRQAPGKERELVAAISSAGNTNYADSVKGRFTISRDNAKNTVYLQMNSLKPEDTAVYYCAKRDYWGQGTQVTVSS,high polyreactivity
7,QVQLVESGGGLVQAGGSLRLSCAASGFTFSWYAMGWYRQAPGKERELVAAINADGGTTYYADSVKGRFTISRDNAKNTVYLQMNRLKPEDTAVYYCAAELSVDKYDYWGQGTQVTVSS,low polyreactivity
8,QVQLVESGGGLVQAGGSLRLSCAASGFTFSWYAMGWYRQAPGKETELVAAITRSGGSTNYADSVKGRFTISRDNAKNTVYLQMNSLKPEDTAVYYCNAAGYRRSTWWYDYWGQGTQVTVSS,high polyreactivity
9,QVQLVESGGGLVQAGGSLRLSCAASGFTFSYNSMGRYRQATAKERELVARISRTGGSTNYADSVKGRFTISRDNAKNTVYLQMNSLKPEDTAVYYCATGYRYTYGSWGQGTQVTVSS,high polyreactivity
10,QVQLVESGGGLVQAGGSLRLSCAASGFTFSYYAMGWDRQAPGKERELVAVISNSDGSTYYADSVKGRFTISRDNAKNTVYLQMNSLNPEDTAVYYCAAVPLWDYKFFYYLLYDYWGQGTQVTVSS,low polyreactivity
11,QVQLVESGGGLVQAGGSLRLSCAASGFTFSYYAMGWYRQAPGKERELVAAISWSGTAMYYADSVKGRFTISRDNAKNTVYLQMNSLKPEDTAVYYCAAGYSASRKVDYWGQGTQVTVSS,high polyreactivity
12,QVQLVESGGGLVQAGGSLRLSCAASGFTFSYYAMGWYRQAPGKERELVAAITKRGGRTYYADSVKGRFTISRDNAKNTVYLQMNSLKPEDTAVYYCAVQARNAFYRPAFDYWGQGTQVTVSS,high polyreactivity
13,QVQLVESGGGLVQAGGSLRLSCAASGFTFSYYAMGWYRQAPGKERELVARISFSGTRTYYADSVKGRFTISRDNAKNTVYLQMNSLKQEDTAVYYCAARLGYVGITARYDYWGQGTQVTVSS,high polyreactivity
14,QVQLVESGGGLVQAGGSLRLSCAASGFTFSYYAMGWYRQAPGKERELVAVISDRGGITYYADSVKGRFTISRDIAKITVYLQMNSLKPEDTAVYYCAAQNPRYNYRYYYWGQGTQVTVSS,low polyreactivity
15,QVQLVESGGGLVQAGGSLRLSCAASGFTFSYYAMGWYRQATGKERELVAAITSGGSTDYADSVKGRFTISRDNAKNTVYLQMNSLKPEDTAVYYCAVTARGGYQGKGTRRIYGYWGHGTQVTVSS,high polyreactivity
16,QVQLVESGGGLVQAGGSLRLSCAASGFTFSYYARGWYRQAPGKARELVATISSGGITNYADSVKGRFTISRDNAKNTDYLQMNSLKPEDTAVYYCAAEPSWWNVFYPGYNYWGQGTQVTVSS,high polyreactivity
17,QVQLVESGGGLVQAGGSLRLSCAASGFTFSYYVMGWYRQAAGKERELVAAINRGGSTNYADSVKRRFTISRDNAKNTVYLQMNSLKPEDTAVYYCAARFPGYGYWGQGTEVTVSS,high polyreactivity
18,QVQLVESGGGLVQAGGSLRLSCAASGFTFTENVMGWYRQAPGKEREFVAAITYIGGRTYYADSVKGRFTISRDNAKNTVYFQMNSLKPEDTAVYYCAADWAYYVDSYLYYTFDYWGQGTQVTVSS,low polyreactivity
19,QVQLVESGGGLVQAGGSLRLSCAASGFTFTEYAMGWYRQAPGKERELVADITWSGGITYYADSVKGRFTISRDNAKNTVYLQMNSLKPEDTAVYYCNADYIYSYFYIRYDYWGQGTQVTVSS,low polyreactivity
20,QVQLVESGGGLVQAGGSLRLSCAASGFTFTFYALGWYRQAPGKERELVAAIRTSDGRTYYADSVKGRFTISRDNAKNTVYLQMNSLKPEDTAVYYCNARRYVGYDYWGQGSQVTVSS,high polyreactivity
21,QVQLVESGGGLVQAGGSLRLSCAASGFTFTGYAMGWYRQAPGKERELVAVISSRGGSTYYADSVKGRFTISRDNAKNTVYLQMNSLKPEDTAVYYCAARGYKGFSSPFGYWGQGTQVTVSS,high polyreactivity
22,QVQLVESGGGLVQAGGSLRLSCAASGFTFTKNTMGWYRQAPGKERELVAAITKSGGRTYYADSVKGRFTISRDNAKNTVYLQMNSLKPEDTAVYYCAADYVRNNYPYGYWGQGTQVTVSS,high polyreactivity

row,Sequence,polyreactivity (PSR sort gate)
1,QVQLVESGGGLVQAGGSLRLSCAASGFTFTPNAMGWYRQAPGKERELVAVITWNGGTTYYADSVKGRFTISRDNAKNTVYLQMNSLKPEDTAVYYCNADGLILYDYWGQGTQVTVSS,low polyreactivity
2,QVQLVESGGGLVQAGGSLRLSCAASGFTFTPYAMGLYSQAPGKERELVAAITWRGGTYYADSVKGRFTISRDNAKKSVYLQMNSLKPEDTAVYYCAARVWRLYPSTYDYWGQGTQVTVSS,high polyreactivity
3,QVQLVESGGGLVQAGGSLRLSCAASGFTFTQYGMGWYRQAPGKEREFVATIRFSGDNTYYADSVKGRFTISRDNAKNTVYLQMNSLKPEDTAVYYCNADNRAFFVYPVSKRYDSWGQGSQVTVSS,low polyreactivity
4,QVQLVESGGGLVQAGGSLRLSCAASGFTFTRNAMGWYRQAPGKEMELVAGITFIGTSTYYADSVKGRFTISRDNAKNTVYLQMNSLKPEDTAVYYCAKEYDDYVYGYHYTRYGYWGQGTQVTVSS,low polyreactivity
5,QVQLVESGGGLVQAGGSLRLSCAASGFTFTRNAMGWYRQAPGKERELVAAINFRSDRTFYADSVKGRFTISRDNAKNTVYLQMNSLKPEDTAVYYCAAQVGRGYEVYPVYKYGYWGQGTQVTVSS,high polyreactivity
6,QVQLVESGGGLVQAGGSLRLSCAASGFTFTRNTMGWYRQAPGKERELVAAITRGGSTNYADSVKGRFTITRDNAKNTVYLQMNSLKPEDTAVYYCAADAPFDRPYNYWGQGTQVTVSS,low polyreactivity
7,QVQLVESGGGLVQAGGSLRLSCAASGFTFTRYALGWYRQAPGKERELVAAISWSGGSTYYADSVKGRFTISRDNAKNTVYLQMNSLKPEDTAVYYCAKRGTVRQGGYGYWGQGTQVTVSS,high polyreactivity
8,QVQLVESGGGLVQAGGSLRLSCAASGFTFTRYAMGWSRQAPGKERELVAAMSRGGTTYADSVKGRFTISRDNAKNTVYLQMNSLKPDDTAVYYCNRLRYCYPQEFGYWGLGTQVTVSS,high polyreactivity
9,QVQLVESGGGLVQAGGSLRLSCAASGFTFTRYAMGWYIQAPGKERELVAAISRRSGGRTYYADSVKGRFTISRDNAKNTVYLQMNSLKPEDTAVYYCAADYSLRSGYEYWGQGTQVTVSS,high polyreactivity
10,QVQLVESGGGLVQAGGSLRLSCAASGFTFTRYAMGWYRQAPGKERELVAAISRSGTSTYYADSVKGRFTISRDNAKNTVYLQMNSLKPEDTAVYYCAAYFGTTGRYALYDYWGQGTQVTVSS,high polyreactivity
11,QVQLVESGGGLVQAGGSLRLSCAASGFTFTRYAMGWYRQAPGKERELVATITKRGGSTYYADSVKGRFTISRDNAKNTVYLQMNSLKPEDTAVYYCAADGASRALYDFWGQGTQVTVSS,high polyreactivity
12,QVQLVESGGGLVQAGGSLRLSCAASGFTFTRYAMGWYRQAPGKERELVATITKRGGSTYYADSVKGRFTISRDNAKNTVYLQMNSLKPEDTAVYYCAADGASRALYDYWGQGTQVTLSS,high polyreactivity
13,QVQLVESGGGLVQAGGSLRLSCAASGFTFTRYAMGWYRQAPGKERELVAVITSSGTSTYYADSVKGRFTISRDNAKNTVYLQMNSLKPEDTAVYYCAARTHRRDFYYWGQGTQVTVSS,high polyreactivity
14,QVQLVESGGGLVQAGGSLRLSCAASGFTFTTYAMGWYRQAPRQVRELVAAITRRGGSTYYADSVKGRFTISRDNEKNTVYLQMNSLKPEDTAVYYCAAGGGWGLDFWGQGTQVTVSS,high polyreactivity
15,QVQLVESGGGLVQAGGSLRLSCAASGFTFTTYVMGWSRQAPGKERELVAAISRRGTSTRYADSVKGRFTISRDNAKNTVYLQMNSLIPEDTAVYYCAADRPYSIVPYDYWGQGTQVTVSS,high polyreactivity
16,QVQLVESGGGLVQAGGSLRLSCAASGFTFTVYAMGWYRQAPGKERELVAAIRWSGGSTSYADSVKGRFTISRDNAKNTVYLQMNSLKPEDTAVYYCNARISDAHYQSNYFLVLYDYWGKGTQVTVSS,low polyreactivity
17,QVQLVESGGGLVQAGGSLRLSCAASGFTFTWNTMGWYRQAPGKERELVAAITKSAGSTYYADSVKGRFTISRDNAKNTVYLQMNSLKPEDTAVYYCAARRVSRGNSKFDYYWGQGTQVTVSS,high polyreactivity
18,QVQLVESGGGLVQAGGSLRLSCAASGFTFTYNAMGWYRQEPGKERELVAAITANGGGTNYADSVKGRFTISRDNAKNTVYLQMNSLKPEDTAVYYCAATIVVAVFESLGFYWYTEENYWGQGTLVTVSS,low polyreactivity
19,QVQLVESGGGLVQAGGSLRLSCAASGFTFTYYAMGWSRQAPGKERELVATISSGGSTYYADSVKGRFTISRDNAKYTVYLQMISLKPEDTAVYYCAVTTYSGLYGFDYWGQGTQVTVSS,low polyreactivity
20,QVQLVESGGGLVQAGGSLRLSCAASGFTFTYYAMGWYRPAPGKERELVAAISTGGSTYYADSVKGRFTISRDNAKNTVYLQMNSLKPEDTAVYYCNAKPRYRKADRLDYWGQGTQVTVSS,high polyreactivity
21,QVQLVESGGGLVQAGGSLRLSCAASGFTFTYYAMGWYRQAPAKERELVAAISSSGGRTYYADSVKGRFTISRDNAKNTVYLQMNSLKPEDTAVYYCAARSVSATPDFHYWGQGTQVTVSS,high polyreactivity
